From paper PMC9678781 (The Journal of Biological Chemistry, 2022)

Tests used:
[1] = target: SARS-CoV-2 Spike S1 subdomain (aa 2-682), 8xHis-tagged (SARS-CoV-2 Wuhan-Hu-1, UniProt P0DTC2); assay: flow cytometry on cells; conditions: one partner purified
[2] = target: SARS-CoV-2 Spike S2 subdomain (aa 686-1211), 8xHis-tagged (SARS-CoV-2 Wuhan-Hu-1, UniProt P0DTC2); assay: flow cytometry on cells; conditions: one partner purified

B1: B9-scFv displayed on the 293T cell surface (pBovShow) (scFv)
VH: QVQLRESGPSLVKPSQTLSLTCTASGFSLSDKAVGWVRQAPGKALEWLGGIDTGGSTGYNPGLKSRLSITKDNSKSQISLSVSSVTTEDSATYYCTTVHQRDSCPYDSSHSQYCSYGWSCGVYNCRPAVWYRYGSCGTCDNLFSYVDAWGQGLLVTVSS
VL: QAVLNQPSSVSGSLGQRVSITCSGSSSNVGNGYVSWYQLIPGSAPRTLIYGDTSRASGVPDRFSGSRSGNTATLTISSLQAEDEADYFCASAEDSSSNAVFGSRTTLTVL
[1]
  binding result: binds
[2]
  binding result: no binding (tested: 2 μM)
